Assay results from paper PMC5415106.

Tests used:
[1] = biological target: GST-Dpb11-wild-type (budding yeast) (UniProt P47027); experiment: pull-down; as the GST pull-down without DNA, but in the presence of 10 pmol bubble-shaped DNA; 10 pmol GST-Dpb11, 32P-labelled RPA; 25°C 1 h, glutathione Sepharose
[2] = biological target: GST-Dpb11-m1,2,3,5,ΔC (budding yeast) (UniProt P47027); experiment: as above
[3] = biological target: GST-Dpb11-wild-type (budding yeast) (UniProt P47027); experiment: pull-down; GST-Dpb11 pull-down of CDK-phosphorylated RPA with single-stranded DNA substituted for bubble-shaped DNA; data not shown
[4] = biological target: GST-Dpb11-wild-type (budding yeast) (UniProt P47027); experiment: pull-down; 10 pmol GST-tagged Dpb11 with 32P-labelled protein, no DNA; GST-binding buffer (40 mM Tris-HCl pH 7.5, 100 mM NaCl, 0.1 mM EDTA, 10% glycerol, 0.1% Triton X-100, 1 mM DTT, 0.1 mg/ml BSA), 25°C 1 h; glutathione Sepharose, two washes; SDS-PAGE and phosphorimaging
[5] = biological target: GST-Dpb11-m1,2,3,5,ΔC (budding yeast) (UniProt P47027); experiment: as above
[6] = biological target: Mcm2-7 complex with a PKA tag at the N-terminus of Mcm2 [modified: 32P-phosphate on the PKA tag; 32P-phosphate on the PKA tag] [budding yeast]; experiment: GST pull-down, phosphorimaging; conditions: 10 pmoles GST-Dpb11, read off a plot

Chain of GST-Dpb11-wild-type (budding yeast) (P47027 whole entry): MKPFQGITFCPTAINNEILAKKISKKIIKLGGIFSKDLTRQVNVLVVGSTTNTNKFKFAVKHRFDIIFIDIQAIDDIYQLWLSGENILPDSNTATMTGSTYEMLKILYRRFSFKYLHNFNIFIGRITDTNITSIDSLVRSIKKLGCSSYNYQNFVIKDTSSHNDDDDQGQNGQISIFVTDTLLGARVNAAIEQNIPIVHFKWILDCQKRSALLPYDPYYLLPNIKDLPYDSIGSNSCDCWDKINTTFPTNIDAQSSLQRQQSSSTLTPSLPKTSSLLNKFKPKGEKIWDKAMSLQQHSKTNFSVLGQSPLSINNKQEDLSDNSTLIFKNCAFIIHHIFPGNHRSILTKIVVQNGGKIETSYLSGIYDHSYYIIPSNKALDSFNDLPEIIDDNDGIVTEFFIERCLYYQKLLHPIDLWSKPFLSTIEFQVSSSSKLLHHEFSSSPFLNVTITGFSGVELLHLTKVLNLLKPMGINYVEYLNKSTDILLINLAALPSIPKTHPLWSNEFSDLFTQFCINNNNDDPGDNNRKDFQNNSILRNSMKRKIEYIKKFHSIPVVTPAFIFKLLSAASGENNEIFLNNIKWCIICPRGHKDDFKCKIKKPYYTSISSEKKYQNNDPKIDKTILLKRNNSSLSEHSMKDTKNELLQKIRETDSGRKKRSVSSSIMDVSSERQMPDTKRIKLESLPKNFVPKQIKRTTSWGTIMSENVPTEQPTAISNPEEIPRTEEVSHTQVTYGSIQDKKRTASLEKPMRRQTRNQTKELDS
Chain of GST-Dpb11-m1,2,3,5,ΔC (budding yeast) (P47027 1-615 K463E/K469E/R538E/K549E): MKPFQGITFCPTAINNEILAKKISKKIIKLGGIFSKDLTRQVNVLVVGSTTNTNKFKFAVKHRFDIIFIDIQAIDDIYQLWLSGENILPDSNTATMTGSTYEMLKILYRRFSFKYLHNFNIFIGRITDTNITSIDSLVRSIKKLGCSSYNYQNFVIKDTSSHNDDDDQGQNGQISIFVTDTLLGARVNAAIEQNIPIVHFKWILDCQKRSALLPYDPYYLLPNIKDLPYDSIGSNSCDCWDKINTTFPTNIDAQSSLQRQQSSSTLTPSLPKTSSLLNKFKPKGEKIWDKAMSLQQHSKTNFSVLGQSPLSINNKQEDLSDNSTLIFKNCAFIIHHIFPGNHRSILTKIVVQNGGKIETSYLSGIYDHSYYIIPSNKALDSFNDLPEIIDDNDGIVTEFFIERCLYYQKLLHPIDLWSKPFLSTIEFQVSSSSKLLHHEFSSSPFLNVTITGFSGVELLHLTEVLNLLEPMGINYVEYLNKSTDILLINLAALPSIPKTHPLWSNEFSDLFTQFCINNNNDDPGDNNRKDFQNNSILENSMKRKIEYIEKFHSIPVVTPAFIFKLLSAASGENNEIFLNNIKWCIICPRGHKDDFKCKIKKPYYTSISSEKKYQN

percent pulled down [1] [%]	percent pulled down [2] [%]	percent pulled down [3] [%]	percent pulled down [4] [%]	percent pulled down [5] [%]	response ([6]; 1 pmole Mcm2-7 input, parent: 0.26) [pmol]	response ([6]; 3 pmoles Mcm2-7 input, parent: 0.55) [pmol]	response ([6]; 10 pmoles Mcm2-7 input, parent: 1.3) [pmol]	Substance
50	15	50	15	15				CDK-phosphorylated RPA (PKA-tagged on Rfa1) (from UniProt P22336 1-621) (complex)
					0.25	0.55	1.3	GST-Dpb11-wild-type mutant K463E; K469E; R538E; K549E [budding yeast] / Mcm2-7 complex with a PKA tag at the N-terminus of Mcm2 [modified: 32P-phosphate on the PKA tag; 32P-phosphate on the PKA tag] [budding yeast] chain 1 K463E, chain 1 K469E, chain 1 R538E, chain 1 K549E
15			15					PKA-RPA (not phosphorylated by CDK) (from UniProt P22336 1-621) (complex)
